Experimental data: publication PMC5103180

Assays:
[1] = molecular target: ATS‐C fragment of PfEMP1 variant PFL0030c (VAR2CSA) (Plasmodium falciparum); test: fluorescence polarisation; 500 nM 5-FAM-labelled ATS-C variants titrated with unlabelled PFE1605w PHIST domain; 20°C; 50 mM NaCl, 20 mM Na2HPO4 pH 6.5; single-site model
[2] = molecular target: PFE1605w‐C (Plasmodium falciparum); test: fluorescence polarisation; 0.5 μM 5-FAM-labelled PFE1605w-C titrated with unlabelled band 3 cytosolic domain (or BSA as negative control); 20°C; 50 mM NaCl, 20 mM Na2HPO4 pH 7.0; single-site model

Question: “PFE1605w PHIST domain (domain or fragment)” was tested. Which Kd [1] did it give?
Answer: The Kd was 90 µM.

Question: For “band 3 cytosolic domain (from UniProt P02730 1-379) (domain or fragment)”, which Kd [2] is on record?
Answer: The Kd was 1500 nM.
